{
  "source": "patent US7358040B2",
  "about": "“MRE 11: modulation of cellular proliferation” (Rigel Pharmaceuticals, Incorporated, priority 2001, dated 2008)",
  "molecules": {"B1": {"name": "GFP-fused MRE11 H129N mutant: GFP-fused dominant negative H129N mutant of MRE11 nuclease, overexpressed in cells for target validation (protein, UniProt P49959 2-708, looked up, variant H129N)", "Double-strand break repair …": "STADALDDENTFKILVATDIHLGFMEKDAVRGNDTFVTLDEILRLAQENEVDFILLGGDLFHENKPSRKTLHTCLELLRKYCMGDRPVQFEILSDQSVNFGFSKFPWVNYQDGNLNISIPVFSIHGNNDDPTGADALCALDILSCAGFVNHFGRSMSVEKIDISPVLLQKGSTKIALYGLGSIPDERLYRMFVNKKVTMLRPKEDENSWFNLFVIHQNRSKHGSTNFIPEQFLDDFIDLVIWGHEHECKIAPTKNEQQLFYISQPGSSVVTSLSPGEAVKKHVGLLRIKGRKMNMHKIPLHTVRQFFMEDIVLANHPDIFNPDNPKVTQAIQSFCLEKIEEMLENAERERLGNSHQPEKPLVRLRVDYSGGFEPFSVLRFSQKFVDRVANPKDIIHFFRHREQKEKTGEEINFGKLITKPSEGTTLRVEDLVKQYFQTAEKNVQLSLLTERGMGEAVQEFVDKEEKDAIEELVKYQLEKTQRFLKERHIDALEDKIDEEVRRFRETRQKNTNEEDDEVREAMTRARALRSQSEESASAFSADDLMSIDLAEQMANDSDDSISAATNKGRGRGRGRRGGRGQNSASRGGSQRGRADTGLETSTRSRNSKTAVSASRNMSIIDAFKSTRQQPSRNVTTKNYSEVIEVDESDVEEDIFPTTSKTDQRWSSTSSSKIMSQSQVSKGVDFESSEDDDDDPFMNTSSLRRNRR", "modifications": "GFP fusion", "notes": "GFP-fused dominant negative H129N mutant of MRE11 nuclease, overexpressed in cells for target validation"}, "B2": {"name": "GFP-MRE11 H217Y mutant: GFP-fused MRE11 H217Y mutant overexpressed in cells (protein, UniProt P49959 2-708, looked up, variant H217Y)", "Double-strand break repair …": "B1 Double-strand break repair … with N128H, H216Y", "modifications": "GFP fusion", "notes": "GFP-fused MRE11 H217Y mutant overexpressed in cells"}, "B3": {"name": "MRE11 H129N mutant: MRE11 H129N mutant expressed using IRES GFP (not fused) (protein, UniProt P49959 2-708, looked up, variant H129N)", "Double-strand break repair …": "B1 Double-strand break repair …"}, "B4": {"name": "MRE11 wild type: wild-type human MRE11 protein (SEQ ID NO:2) overexpressed in cells (protein, listed as Homo sapiens)", "chain": "MSTADALDDENTFKILVATDIHLGFMEKDAVRGNDTFVTLDEILRLAQENEVDFILLGGDLFHENKPSRKTLHTCLELLRKYCMGDRPVQFEILSDQSVNFGFSKFPWVNYQDGNLNISIPVFSIHGNHDDPTGADALCALDILSCAGFVNHFGRSMSVEKIDISPVLLQKGSTKIALYGLGSIPDERLYRMFVNKKVTMLRPKEDENSWFNLFVIHQNRSKHGSTNFIPEQFLDDFIDLVIWGHEHECKIAPTKNEQQLFYISQPGSSVVTSLSPGEAVKKHVGLLRIKGRKMNMHKIPLHTVRQFFMEDIVLANHPDIFNPDNPKVTQAIQSFCLEKIEEMLENAERERLGNSHQPEKPLVRLRVDYSGGFEPFSVLRFSQKFVDRVANPKDIIHFFRHREQKEKTGEEINFGKLITKPSEGTTLRVEDLVKQYFQTAEKNVQLSLLTERGMGEAVQEFVDKEEKDAIEELVKYQLEKTQRFLKERHIDALEDKIDEEVRRFRETRQKNTNEEDDEVREAMTRARALRSQSEESASAFSADDLMSIDLAEQMANDSDDSISAATNKGRGRGRGRRGGRGQNSASRGGSQRGRADTGLETSTRSRNSKTAVSASRNMSIIDAFKSTRQQPSRNVTTKNYSEVIEVDESDVEEDIFPTTSKTDQRWSSTSSSKIMSQSQVSKGVDFESSEDDDDDPFMNTSSLRRNRR", "modifications": "human MRE11 meiotic recombination 11 homolog A"}},
  "type_in_all_cases": "cell-based",
  "key": {"A549 tumor cells [1]": {"system": "A549 tumor cells", "test": "cell tracker assay in A549 tumor cells", "excerpt": "(§1) As described below, the present inventors identified MRE11 in a yeast two hybrid assay, using PCNA as bait. Another molecule, NBS1, was identified in the two-hybrid assay as a PCNA-binding protein, as NBS1 binds the mammalian homolog of yeast RAD50, which also binds to MRE11 (see, e.g., Petrini, Am. J Hum. Genet. 64:1264-1269 (1999); Kim et al., J. Biol. Chem. 271:29255-29264 (1996); see also GenBank Accession number XP—034864 for a protein sequence of human RAD50 and Accession number XM—034864 for a nucleic acid sequence of human RAD50; see also Example 1)). NBS1 therefore bound to the RAD50/MRE11 complex, as well as to PCNA. As shown in FIGS. 8-15, inhibition of MRE11 or overexpression of an MRE11 mutant is antiproliferative in tumor cells and HeLa cells but not in normal cells (using, e.g., GFP positivity assays, cell tracker assays, and antisense assays).\n(§2) In another embodiment, MRE11 protein is expressed in a cell, and functional, e.g., physical and chemical or phenotypic, changes are assayed to identify MRE11 and modulators of cellular proliferation, e.g., tumor cell proliferation. Cells expressing MRE11 proteins can also be used in binding assays and enzymatic assays. Any suitable functional effect can be measured, as described herein. […]"}, "A549 tumor cells [2]": {"system": "A549 tumor cells", "test": "overexpression / GFP positivity proliferation assay in A549 tumor cells", "excerpt": "as §1, §2"}, "HeLa cells [3]": {"system": "HeLa cells", "test": "overexpression / GFP positivity proliferation assay in HeLa cells", "excerpt": "as §1, §2"}, "normal HMEC cells": {"system": "normal HMEC cells", "test": "bleomycin chemosensitization study in normal HMEC cells", "excerpt": "as §1"}, "HeLa cells [4]": {"system": "HeLa cells", "test": "bleomycin chemosensitization study in HeLa cells", "excerpt": "as §1"}, "A549 tumor cells [5]": {"system": "A549 tumor cells", "test": "bleomycin chemosensitization study in A549 tumor cells", "excerpt": "as §1"}, "normal cells [6]": {"system": "normal cells", "test": "cell tracker assay in normal cells", "excerpt": "as §1, §2"}, "normal cells [7]": {"system": "normal cells", "test": "overexpression proliferation assay in normal cells", "excerpt": "as §1, §2"}},
  "note": "Where a chain is given by its changes, count along the chain named. In names and notes the source's numbering stands.",
  "data": [
    {"molecule": "B1", "values": [
      {"measurement": "antiproliferative activity, cell tracker assay", "setting": "A549 tumor cells [1]", "value": "antiproliferative"},
      {"measurement": "antiproliferative activity on overexpression", "setting": "A549 tumor cells [2]", "value": "antiproliferative"},
      {"measurement": "antiproliferative activity on overexpression", "setting": "HeLa cells [3]", "value": "antiproliferative"}
    ]},
    {"molecule": "B2", "values": [
      {"measurement": "sensitivity to bleomycin treatment on overexpression", "setting": "normal HMEC cells", "value": "does not enhance sensitivity"},
      {"measurement": "sensitivity to bleomycin treatment on overexpression", "setting": "HeLa cells [4]", "value": "enhances sensitivity"},
      {"measurement": "sensitivity to bleomycin treatment on overexpression", "setting": "A549 tumor cells [5]; A549 tumor cells", "value": "enhances sensitivity"}
    ]},
    {"molecule": "B3", "values": [
      {"measurement": "antiproliferative activity, cell tracker assay", "setting": "A549 tumor cells [1]", "value": "antiproliferative"}
    ]},
    {"molecule": "B4", "values": [
      {"measurement": "antiproliferative activity, cell tracker assay", "setting": "normal cells [6]", "value": "no antiproliferative activity"},
      {"measurement": "antiproliferative activity on overexpression", "setting": "normal cells [7]", "value": "not antiproliferative"},
      {"measurement": "selective sensitization after bleomycin treatment", "setting": "A549 tumor cells [5]; tumor cells expressing the protein, 48 hours after bleomycin treatment", "value": "no selective sensitization"}
    ]}
  ]
}
